Tests used:
[1] = target: von Willebrand factor (vWF) (UniProt P04275); assay: vWF binding ELISA divided by total antigen ELISA
[2] = target: von Willebrand factor (vWF) (UniProt P04275); assay: vWF binding ELISA, FVIII bound to vWf in severe hemophilic plasma
[3] = target: von Willebrand factor (vWF) (UniProt P04275); assay: vWF binding ELISA divided by total antigen ELISA, relative to starting KG-2
[4] = target: von Willebrand factor (vWF) (UniProt P04275); assay: vWF binding ELISA divided by total antigen ELISA, relative to BDD
[5] = target: von Willebrand factor (vWF) (UniProt P04275); assay: vWF binding ELISA value divided by total antigen ELISA value
[6] = target: von Willebrand factor (vWF) (UniProt P04275); assay: vWF binding ELISA (FVIII bound to vWf in severe hemophilic plasma, captured on anti-vWf mAb) divided by total antigen ELISA, relative to BDD

Sequence of B domain deleted FVIII (BDD) (P00451 other isoform, or with tags, fused parts or gaps limits assumed): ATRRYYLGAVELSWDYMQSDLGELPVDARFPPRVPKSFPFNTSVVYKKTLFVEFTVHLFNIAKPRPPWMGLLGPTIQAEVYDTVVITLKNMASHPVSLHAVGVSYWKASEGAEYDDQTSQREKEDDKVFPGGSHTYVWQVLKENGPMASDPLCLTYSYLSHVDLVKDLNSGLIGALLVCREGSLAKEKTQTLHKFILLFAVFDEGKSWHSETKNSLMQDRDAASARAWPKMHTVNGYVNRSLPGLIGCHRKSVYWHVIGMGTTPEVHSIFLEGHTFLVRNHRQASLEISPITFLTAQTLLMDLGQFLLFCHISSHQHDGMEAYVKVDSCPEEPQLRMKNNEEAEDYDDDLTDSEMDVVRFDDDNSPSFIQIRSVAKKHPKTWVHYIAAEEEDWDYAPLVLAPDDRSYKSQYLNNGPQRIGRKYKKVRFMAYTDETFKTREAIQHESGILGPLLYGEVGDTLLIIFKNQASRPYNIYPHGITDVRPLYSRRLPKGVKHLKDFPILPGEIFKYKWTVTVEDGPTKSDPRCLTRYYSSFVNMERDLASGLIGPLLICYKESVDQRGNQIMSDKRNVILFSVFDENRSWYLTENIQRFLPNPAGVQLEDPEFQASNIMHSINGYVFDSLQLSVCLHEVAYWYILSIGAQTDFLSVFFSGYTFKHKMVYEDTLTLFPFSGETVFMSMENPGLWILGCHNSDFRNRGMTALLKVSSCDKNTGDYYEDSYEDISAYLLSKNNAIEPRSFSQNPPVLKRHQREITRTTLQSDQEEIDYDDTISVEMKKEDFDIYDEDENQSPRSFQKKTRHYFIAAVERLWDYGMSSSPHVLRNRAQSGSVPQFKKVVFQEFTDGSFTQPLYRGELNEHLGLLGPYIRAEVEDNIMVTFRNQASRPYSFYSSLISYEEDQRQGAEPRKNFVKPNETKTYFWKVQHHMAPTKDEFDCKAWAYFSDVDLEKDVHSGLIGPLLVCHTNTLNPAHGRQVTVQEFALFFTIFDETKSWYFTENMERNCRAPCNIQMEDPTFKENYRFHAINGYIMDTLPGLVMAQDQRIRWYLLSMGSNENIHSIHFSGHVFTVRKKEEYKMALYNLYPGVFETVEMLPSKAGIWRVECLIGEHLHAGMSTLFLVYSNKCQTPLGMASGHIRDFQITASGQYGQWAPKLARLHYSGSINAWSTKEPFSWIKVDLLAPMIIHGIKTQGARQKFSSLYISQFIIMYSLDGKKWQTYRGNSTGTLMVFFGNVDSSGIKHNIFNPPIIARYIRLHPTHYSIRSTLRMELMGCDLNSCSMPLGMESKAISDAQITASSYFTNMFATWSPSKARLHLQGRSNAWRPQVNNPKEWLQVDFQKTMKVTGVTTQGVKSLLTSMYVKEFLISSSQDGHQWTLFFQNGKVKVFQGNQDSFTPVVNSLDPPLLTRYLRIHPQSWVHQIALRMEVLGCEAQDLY
Sequence of PEG2 red (PEG2 mutein treated with reductant followed by removal of reductant) (P00451 other isoform, or with tags, fused parts or gaps mutant): as the sequence (P00451 other isoform, or with tags, fused parts or gaps limits assumed) above, with L491C counted along it

## KG-2-30 kD PEG (wildtype full length FVIII PEGylated with 30 kD PEG) (from UniProt P00451 20-2351)
[1]
  vWF/TAE (ratio (vWF ELISA ug/mL / TAE ug/mL)): 0.32
[2]
  vWF ELISA (FVIII bound to vWf): 0.19 µg/mL
[3]
  % Start (vWF/TAE): 100%

## PEG2-5 kD PEG (L491C BDD FVIII PEGylated with 5 kD PEG-maleimide) (from UniProt P00451 20-2351)
[4]
  percent specific activity vWF/TAE relative to BDD: 125%

## PEG2 red (PEG2 mutein treated with reductant followed by removal of reductant) (from UniProt P00451 20-2351)
[4]
  percent specific activity vWF/TAE relative to BDD: 98%

## B domain deleted FVIII (BDD) (from UniProt P00451 20-2351)
[5]
  vWF/TAE (specific vWF binding activity): 1 vWF/TAE
[6]
  percent specific activity vWF/TAE relative to BDD: 100%

## KG-2-22 kD PEG (wildtype full length FVIII PEGylated with 22 kD PEG) (from UniProt P00451 20-2351)
[1]
  vWF/TAE (ratio (vWF ELISA ug/mL / TAE ug/mL)): 0.3
[2]
  vWF ELISA (FVIII bound to vWf): 0.19 µg/mL
[3]
  % Start (vWF/TAE): 94%

## wildtype full length FVIII (KG-2) (from UniProt P00451 20-2351)
[1]
  vWF/TAE (ratio (vWF ELISA ug/mL / TAE ug/mL)): 0.32
[2]
  vWF ELISA (FVIII bound to vWf): 0.42 µg/mL
[3]
  % Start (vWF/TAE): 100%

## PEG2-33 kD PEG (L491C BDD FVIII PEGylated with 33 kD PEG-maleimide) (from UniProt P00451 20-2351)
[4]
  percent specific activity vWF/TAE relative to BDD: 59%

## PEG2-22 kD PEG (L491C BDD FVIII PEGylated with 22 kD PEG-maleimide) (from UniProt P00451 20-2351)
[4]
  percent specific activity vWF/TAE relative to BDD: 87%

## PEG6 mutein (K1808C BDD FVIII) (from UniProt P00451 20-2351)
[4]
  percent specific activity vWF/TAE relative to BDD: 100%

## PEG2-43 kD PEG (L491C BDD FVIII PEGylated with 43 kD PEG-maleimide) (from UniProt P00451 20-2351)
[4]
  percent specific activity vWF/TAE relative to BDD: 57%

## PEG2-12 kD PEG (L491C BDD FVIII PEGylated with 12 kD PEG-maleimide) (from UniProt P00451 20-2351)
[4]
  percent specific activity vWF/TAE relative to BDD: 71%

## PEG6-33 kD PEG (K1808C BDD FVIII PEGylated with 33 kD PEG-maleimide) (from UniProt P00451 20-2351)
[4]
  percent specific activity vWF/TAE relative to BDD: 90%

## PEG2 mutein (L491C BDD FVIII) (from UniProt P00451 20-2351)
[4]
  percent specific activity vWF/TAE relative to BDD: 138%
